Data taken from US20190300618A1 (Merck Sharp & Dohme, published 2019).
Changes are numbered by the printed parent chain.

Key:
[1] = biological target: human CD27 (wild type), expressed on cells (human) (UniProt P26842); assay: flow cytometry on primary T cells
[2] = biological target: D43A; assay: flow cytometry, CHO-K1; sub-column 1 of 2
[3] = biological target: H36A; assay: flow cytometry, CHO-K1; sub-column 1 of 2
[4] = biological target: H60A; assay: flow cytometry, CHO-K1; sub-column 1 of 2
[5] = biological target: I46A; assay: flow cytometry, CHO-K1; sub-column 1 of 2
[6] = biological target: K38A; assay: flow cytometry, CHO-K1; sub-column 1 of 2
[7] = biological target: Q15A; assay: flow cytometry, CHO-K1; sub-column 1 of 2
[8] = biological target: Q91A; assay: flow cytometry, CHO-K1; sub-column 1 of 2
[9] = biological target: R10A; assay: flow cytometry, CHO-K1; sub-column 1 of 2
[10] = biological target: R87A; assay: flow cytometry, CHO-K1; sub-column 1 of 2
[11] = biological target: W13A; assay: flow cytometry, CHO-K1; sub-column 1 of 2
[12] = biological target: W90A; assay: flow cytometry, CHO-K1; sub-column 1 of 2
[13] = biological target: D32A; assay: flow cytometry, CHO-K1; sub-column 2 of 2
[14] = biological target: D43A; assay: flow cytometry, CHO-K1; sub-column 2 of 2
[15] = biological target: E9A; assay: flow cytometry, CHO-K1; sub-column 2 of 2
[16] = biological target: F28A; assay: flow cytometry, CHO-K1; sub-column 2 of 2
[17] = biological target: G16A; assay: flow cytometry, CHO-K1; sub-column 2 of 2
[18] = biological target: G89A; assay: flow cytometry, CHO-K1; sub-column 2 of 2
[19] = biological target: H36A; assay: flow cytometry, CHO-K1; sub-column 2 of 2
[20] = biological target: H60A; assay: flow cytometry, CHO-K1; sub-column 2 of 2
[21] = biological target: I46A; assay: flow cytometry, CHO-K1; sub-column 2 of 2
[22] = biological target: K17A; assay: flow cytometry, CHO-K1; sub-column 2 of 2
[23] = biological target: K31A; assay: flow cytometry, CHO-K1; sub-column 2 of 2
[24] = biological target: K38A; assay: flow cytometry, CHO-K1; sub-column 2 of 2
[25] = biological target: N88A; assay: flow cytometry, CHO-K1; sub-column 2 of 2
[26] = biological target: P44A; assay: flow cytometry, CHO-K1; sub-column 2 of 2
[27] = biological target: P8A; assay: flow cytometry, CHO-K1; sub-column 2 of 2
[28] = biological target: Q15A; assay: flow cytometry, CHO-K1; sub-column 2 of 2
[29] = biological target: Q41A; assay: flow cytometry, CHO-K1; sub-column 2 of 2
[30] = biological target: Q91A; assay: flow cytometry, CHO-K1; sub-column 2 of 2
[31] = biological target: R10A; assay: flow cytometry, CHO-K1; sub-column 2 of 2
[32] = biological target: R37A; assay: flow cytometry, CHO-K1; sub-column 2 of 2
[33] = biological target: R87A; assay: flow cytometry, CHO-K1; sub-column 2 of 2
[34] = biological target: R93A; assay: flow cytometry, CHO-K1; sub-column 2 of 2
[35] = biological target: S63A; assay: flow cytometry, CHO-K1; sub-column 2 of 2
[36] = biological target: V30A; assay: flow cytometry, CHO-K1; sub-column 2 of 2
[37] = biological target: V49A; assay: flow cytometry, CHO-K1; sub-column 2 of 2
[38] = biological target: W13A; assay: flow cytometry, CHO-K1; sub-column 2 of 2
[39] = biological target: W90A; assay: flow cytometry, CHO-K1; sub-column 2 of 2
[40] = biological target: T1, Q15A; assay: flow cytometry, CHO-K1; single column;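 also: CHO-K1 cells transiently transfected with hCD27 alanine mutant constructs, anti-hCD27 antibody binding measured by flow cytometry, 30 min at 4 °C, wild-type hCD27 binding taken as 100%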
T1 construct: also called hCD27 Q15A
T1 receptor: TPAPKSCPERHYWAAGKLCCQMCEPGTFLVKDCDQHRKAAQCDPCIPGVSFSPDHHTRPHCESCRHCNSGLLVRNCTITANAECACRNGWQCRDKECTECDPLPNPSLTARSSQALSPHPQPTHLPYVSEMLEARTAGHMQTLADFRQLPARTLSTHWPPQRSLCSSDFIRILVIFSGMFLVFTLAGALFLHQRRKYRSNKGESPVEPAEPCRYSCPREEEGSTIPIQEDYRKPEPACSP
Procedure: (§1) The ability of several anti-hCD27 antibodies to bind to a series of hCD27 alanine mutants was determined using CHO-K1 cells, transiently transfected pCI-neo empty vector, pCI-neo.hCD27 and several pCI-neo.CD27Ala mutant constructs.
(§2) Detached cells were transferred to 96 wells round-bottomed well plates at approximately 1.2×10⁵ cells/well. After spinning down the cells, discarding the supernatants and re-suspending the cells in the residual volume, the primary antibodies were added and incubated for 30 minutes at 4° C. Cells were washed three times with DPBS/BSA 1%, followed by centrifugation, discarding of the supernatants and re-suspension in the residual volume. […] After washing once, antibody binding was detected using the HTS plate reader (FACS Canto II) and FlowJo software for data analysis. Debris, dead cells and doublets were excluded from the analysis. Binding was expressed as the geometric mean of the FITC signal, relative to antibody binding to hCD27, which was set at 100%.

[41] = biological target: T2, K17A; assay: flow cytometry, CHO-K1; single column;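 also: CHO-K1 cells transiently transfected with hCD27 alanine mutant constructs, anti-hCD27 antibody binding measured by flow cytometry, 30 min at 4 °C, wild-type hCD27 binding taken as 100%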
T2 construct: also called hCD27 K17A
T2 receptor: T1 receptor with A15Q, K17A
Procedure: as §1, §2

[42] = biological target: T3, D32A; assay: flow cytometry, CHO-K1; single column;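 also: CHO-K1 cells transiently transfected with hCD27 alanine mutant constructs, anti-hCD27 antibody binding measured by flow cytometry, 30 min at 4 °C, wild-type hCD27 binding taken as 100%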
T3 construct: also called hCD27 D32A
T3 receptor: T1 receptor with A15Q, D32A
Procedure: as §1, §2

For 1F5 hIgG1 (antibody), the fold higher EC50 compared to 131AVH6VL6-hIgG1 [1] was 5 fold, the % of WT hCD27 binding (geo mean FITC) [2] was 202% and the % of WT hCD27 binding (geo mean FITC) [3] was 116%. For the same molecule, the % of WT hCD27 binding (geo mean FITC) [4] was 176%, the % of WT hCD27 binding (geo mean FITC) [5] was 128% and the % of WT hCD27 binding (geo mean FITC) [6] was 96.5%. It also gave a % of WT hCD27 binding (geo mean FITC) [7] of 99%, a % of WT hCD27 binding (geo mean FITC) [8] of 156% and a % of WT hCD27 binding (geo mean FITC) [9] of 105%. The % of WT hCD27 binding (geo mean FITC) [10] was 40.8%, the % of WT hCD27 binding (geo mean FITC) [11] was 89.5% and the % of WT hCD27 binding (geo mean FITC) [12] was 42.5%. The % of WT hCD27 binding (geo mean FITC) [13] was 59.6%, the % of WT hCD27 binding (geo mean FITC) [14] was 86.1% and the % of WT hCD27 binding (geo mean FITC) [15] was 120%. It also gave a % of WT hCD27 binding (geo mean FITC) [16] of 46.2%, a % of WT hCD27 binding (geo mean FITC) [17] of 101% and a % of WT hCD27 binding (geo mean FITC) [18] of 68.5%. It also gave a % of WT hCD27 binding (geo mean FITC) [19] of 80%, a % of WT hCD27 binding (geo mean FITC) [20] of 110% and a % of WT hCD27 binding (geo mean FITC) [21] of 69.7%. The % of WT hCD27 binding (geo mean FITC) [22] was 112%, the % of WT hCD27 binding (geo mean FITC) [23] was 120% and the % of WT hCD27 binding (geo mean FITC) [24] was 94.2%. The % of WT hCD27 binding (geo mean FITC) [25] was 119%, the % of WT hCD27 binding (geo mean FITC) [26] was 83.7% and the % of WT hCD27 binding (geo mean FITC) [27] was 73.1%. For the same molecule, the % of WT hCD27 binding (geo mean FITC) [28] was 127%, the % of WT hCD27 binding (geo mean FITC) [29] was 66.3% and the % of WT hCD27 binding (geo mean FITC) [30] was 115%. The % of WT hCD27 binding (geo mean FITC) [31] was 113%, the % of WT hCD27 binding (geo mean FITC) [32] was 88% and the % of WT hCD27 binding (geo mean FITC) [33] was 7.8%. For the same molecule, the % of WT hCD27 binding (geo mean FITC) [34] was 85.5%, the % of WT hCD27 binding (geo mean FITC) [35] was 121% and the % of WT hCD27 binding (geo mean FITC) [36] was 88.9%. The % of WT hCD27 binding (geo mean FITC) [37] was 92.8%, the % of WT hCD27 binding (geo mean FITC) [38] was 82.8% and the % of WT hCD27 binding (geo mean FITC) [39] was 10%.

B1: hCD27.15-6B (humanized hCD27.15, human IgG4, Clone 6B) (antibody, V domains shown)
VH: QVQLVQSGAEVKKPGASVKVSCKASGFIIKATYMHWVRQAPGQRLEWMGRIDPANGETKYDPKFQVRVTITADTSASTAYMELSSLRSEDTAVYYCARYAWYFDVWGQGTLVTVSS
VL: DIQMTQSPSSLSASVGDRVTITCRASENIYSFLAWYQQKPGKAPKLLIYHAKTLAEGVTSRFSGSGSGTDFTLTISSLQPEDSATYYCQHYYGSPLTFGQGTRLEIKR
notes: humanized version of hCD27.15 from WO2012/004367 with identical CDR regions; also called hCD27.15 (humanized 6B); hCD27.15 6B humanized antibody
B1 was tested, and the “% of WT hCD27 binding (geo mean FITC)” value [40] was 98.6%, the “% of WT hCD27 binding (geo mean FITC)” value [41] was 120% and the “% of WT hCD27 binding (geo mean FITC)” value [42] was 50.6%.
